Values joined by “and” are separate entries in the source; they are usually repeats but may differ in a detail not shown here. Equal entries are not always repeated.
Key:
[1] = molecular target: T1, eOD-GT8 (monomer), synthetic construct eOD-GT8-Avi-3C-His (synthetic construct (engineered HIV-1 …))
[2] = molecular target: SSB (La) antigen (Bos taurus (assumed), UniProt P10881); test: ELISA; details: both partners purified
[3] = molecular target: Jo-1 antigen (Bos taurus (assumed), UniProt Q2KI84); test: ELISA; details: both partners purified
[4] = molecular target: T2, Centromere protein B (Homo sapiens (product PRO-390 from …, UniProt P07199)); test: ELISA; details: both partners purified
T2 construct: also called centromere B

[5] = molecular target: Scl-70 antigen (Bos taurus (assumed), UniProt A0AAA9TV68); test: ELISA; details: both partners purified
[6] = molecular target: eOD-GT8 (24-mer) (synthetic construct (engineered HIV-1 …)); test: BLI; details: both partners purified
[7] = molecular target: eOD-GT8 (heptamer) (synthetic construct (engineered HIV-1 …)); test: BLI; details: both partners purified
[8] = molecular target: T1, eOD-GT8 (monomer), synthetic construct …; test: SPR; details: both partners purified
[9] = molecular target: T3, eOD-GT6, synthetic construct eOD-GT6-Avi-3C-His (synthetic construct (engineered HIV-1 …)); test: SPR; details: both partners purified
T3 construct: source: produced in house (Duke Human Vaccine Institute and VRC/NIAID)

[10] = molecular target: Ubiquitin Protein Ligase E3A (UBE3A) (Homo sapiens, assumed, UniProt Q05086); test: ELISA; details: both partners purified
Ubiquitin Protein Ligase E3A (UBE3A), sequence (Q05086 whole entry): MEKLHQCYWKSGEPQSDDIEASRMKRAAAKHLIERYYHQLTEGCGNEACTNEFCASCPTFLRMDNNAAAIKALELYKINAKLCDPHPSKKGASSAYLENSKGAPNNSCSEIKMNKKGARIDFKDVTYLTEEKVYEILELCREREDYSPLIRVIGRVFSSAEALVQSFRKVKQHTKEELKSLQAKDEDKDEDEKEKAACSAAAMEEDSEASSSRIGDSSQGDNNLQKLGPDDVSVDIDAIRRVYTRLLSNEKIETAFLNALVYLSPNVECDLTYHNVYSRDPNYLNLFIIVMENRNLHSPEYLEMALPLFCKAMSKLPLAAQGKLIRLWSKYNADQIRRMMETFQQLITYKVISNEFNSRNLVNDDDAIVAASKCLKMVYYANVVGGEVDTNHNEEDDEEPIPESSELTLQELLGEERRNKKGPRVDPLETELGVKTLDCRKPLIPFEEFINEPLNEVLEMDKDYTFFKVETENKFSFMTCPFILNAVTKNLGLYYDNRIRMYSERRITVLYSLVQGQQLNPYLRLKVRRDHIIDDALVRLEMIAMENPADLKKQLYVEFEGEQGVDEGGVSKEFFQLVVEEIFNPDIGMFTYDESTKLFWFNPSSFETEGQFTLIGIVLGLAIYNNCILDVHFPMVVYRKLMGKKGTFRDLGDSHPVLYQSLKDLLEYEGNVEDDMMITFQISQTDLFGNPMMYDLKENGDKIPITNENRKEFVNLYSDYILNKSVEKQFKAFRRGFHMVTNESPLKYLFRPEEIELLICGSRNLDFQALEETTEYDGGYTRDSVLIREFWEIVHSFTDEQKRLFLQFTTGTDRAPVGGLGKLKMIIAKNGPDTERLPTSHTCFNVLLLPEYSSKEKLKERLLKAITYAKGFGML

T3 sequence (heavy, as listed by the source): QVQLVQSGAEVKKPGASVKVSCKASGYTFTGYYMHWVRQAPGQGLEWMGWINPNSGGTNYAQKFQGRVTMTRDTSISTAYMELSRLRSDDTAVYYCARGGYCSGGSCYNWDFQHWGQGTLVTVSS
T2 sequence (P07199 whole entry): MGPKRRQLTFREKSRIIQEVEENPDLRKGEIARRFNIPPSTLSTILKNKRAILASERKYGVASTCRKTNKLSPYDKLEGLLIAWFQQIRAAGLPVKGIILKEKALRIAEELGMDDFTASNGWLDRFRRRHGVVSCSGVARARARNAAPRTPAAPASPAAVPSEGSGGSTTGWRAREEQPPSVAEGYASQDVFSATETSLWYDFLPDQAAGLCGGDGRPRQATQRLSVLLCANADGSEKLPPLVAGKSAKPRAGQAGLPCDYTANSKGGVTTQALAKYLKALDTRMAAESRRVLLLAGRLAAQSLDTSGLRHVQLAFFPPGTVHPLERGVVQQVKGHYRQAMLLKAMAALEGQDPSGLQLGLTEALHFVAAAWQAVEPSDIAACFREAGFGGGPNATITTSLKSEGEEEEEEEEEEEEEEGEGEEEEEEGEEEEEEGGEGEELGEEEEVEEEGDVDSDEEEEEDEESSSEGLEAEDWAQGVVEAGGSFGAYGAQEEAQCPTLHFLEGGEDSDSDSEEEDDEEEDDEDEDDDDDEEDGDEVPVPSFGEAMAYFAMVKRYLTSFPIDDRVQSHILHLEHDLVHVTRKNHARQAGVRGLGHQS
SSB (La) antigen, sequence (P05455 whole entry): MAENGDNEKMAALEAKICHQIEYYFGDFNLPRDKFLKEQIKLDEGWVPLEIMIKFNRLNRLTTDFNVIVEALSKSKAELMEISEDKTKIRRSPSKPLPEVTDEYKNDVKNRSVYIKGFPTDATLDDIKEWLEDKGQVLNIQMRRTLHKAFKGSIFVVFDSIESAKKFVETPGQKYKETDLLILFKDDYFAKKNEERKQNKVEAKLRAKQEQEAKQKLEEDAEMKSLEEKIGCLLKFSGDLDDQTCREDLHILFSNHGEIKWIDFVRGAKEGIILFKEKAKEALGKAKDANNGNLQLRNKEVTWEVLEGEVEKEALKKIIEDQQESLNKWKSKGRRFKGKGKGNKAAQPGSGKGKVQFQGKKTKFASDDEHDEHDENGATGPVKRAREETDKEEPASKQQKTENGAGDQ
Jo-1 antigen, sequence (P12081 whole entry): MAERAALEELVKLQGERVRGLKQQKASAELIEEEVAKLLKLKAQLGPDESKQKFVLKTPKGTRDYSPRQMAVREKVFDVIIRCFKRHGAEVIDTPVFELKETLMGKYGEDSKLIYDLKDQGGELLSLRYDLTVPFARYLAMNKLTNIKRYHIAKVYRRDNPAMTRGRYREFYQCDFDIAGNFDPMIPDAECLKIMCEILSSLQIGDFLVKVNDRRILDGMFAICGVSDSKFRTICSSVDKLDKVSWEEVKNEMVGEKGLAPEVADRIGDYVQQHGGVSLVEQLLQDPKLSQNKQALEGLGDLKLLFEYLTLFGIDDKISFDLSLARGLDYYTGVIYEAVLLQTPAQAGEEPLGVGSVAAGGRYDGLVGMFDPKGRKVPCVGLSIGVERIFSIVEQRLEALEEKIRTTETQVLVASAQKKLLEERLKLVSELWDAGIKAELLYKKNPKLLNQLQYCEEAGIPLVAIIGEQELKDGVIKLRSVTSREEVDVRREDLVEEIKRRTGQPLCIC
eOD-GT8 (24-mer) (synthetic construct (engineered HIV-1 …)), sequence (heavy, as listed by the source): as the sequence (heavy, as listed by the source) above
eOD-GT8 (heptamer) (synthetic construct (engineered HIV-1 …)), sequence (heavy, as listed by the source): as above
Scl-70 antigen, sequence (P11387 whole entry): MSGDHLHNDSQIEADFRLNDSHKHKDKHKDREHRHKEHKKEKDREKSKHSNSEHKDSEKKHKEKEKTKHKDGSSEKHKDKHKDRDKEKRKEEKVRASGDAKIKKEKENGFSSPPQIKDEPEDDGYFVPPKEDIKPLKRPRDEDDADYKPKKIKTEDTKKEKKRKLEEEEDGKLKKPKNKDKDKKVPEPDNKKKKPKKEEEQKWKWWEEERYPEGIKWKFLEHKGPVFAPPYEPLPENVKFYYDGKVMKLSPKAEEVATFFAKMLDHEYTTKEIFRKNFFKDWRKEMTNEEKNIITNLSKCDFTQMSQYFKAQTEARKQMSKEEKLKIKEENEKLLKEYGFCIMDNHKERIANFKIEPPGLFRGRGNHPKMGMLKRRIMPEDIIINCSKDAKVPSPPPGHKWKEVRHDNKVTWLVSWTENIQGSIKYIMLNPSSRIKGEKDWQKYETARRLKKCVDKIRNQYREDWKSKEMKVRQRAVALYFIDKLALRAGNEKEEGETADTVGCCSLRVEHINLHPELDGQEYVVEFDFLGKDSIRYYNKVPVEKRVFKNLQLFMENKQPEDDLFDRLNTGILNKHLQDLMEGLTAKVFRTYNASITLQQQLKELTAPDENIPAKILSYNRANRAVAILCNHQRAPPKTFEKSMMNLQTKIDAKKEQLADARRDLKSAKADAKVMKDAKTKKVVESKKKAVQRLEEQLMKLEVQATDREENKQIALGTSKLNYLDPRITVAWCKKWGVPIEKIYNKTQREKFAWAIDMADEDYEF

Binder | binding result [1] | binding result [10] | other results
VRC01 VJ.Rev (antibody, V domains shown) VH: not shown VL: EIVLTQSPATLSLSPGERATLSCRASQSVSSYLAWYQQKPGQAPRLLIYDASNRATGIPARFSGSGSGTDFTLTISSLEPEDFAVYYCQQYEFFGQGTKLEIK | binds | – | –
VRC23 V.Rev (antibody, V domains shown) VH: not shown VL: EIVMTQSPATLSVSPGERATLSCRASQSVSSNLAWYQQKPGQAPRLLIYGASTRATGIPARFSGSGSGTEFTLTISSLQSEDFAVYYCQQYETFGQGTKVEIK | – | – | binding result [2]: binds; binding result [3]: binds; binding result [4]: binds; binding result [5]: binds
VRC01 V.Rev (antibody, V domains shown) VH: not shown VL: EIVLTQSPGTLSLSPGERATLSCRASQSVSSSYLAWYQQKPGQAPRLLIYGASSRATGIPDRFSGSGSGTDFTLTISRLEPEDFAVYYCQQYEFFGQGTKVQVD | binds | – | –
VRC18b V.Rev (antibody, V domains shown) VH: not shown VL: EIVLTQSPGTLSLSPGERATLSCRASQSVSSSYLAWYQQKPGQAPRLLIYGASSRATGIPDRFSGSGSGTDFTLTISRLEPEDFAVYYCQILEFFGRGTRVEMN | binds | – | –
VRC03 V.Rev (antibody, V domains shown) VH: not shown VL: EIVLTQSPGTLSLSPGERATLSCRASQSVSSSYLAWYQQKPGQAPRLLIYGASSRATGIPDRFSGSGSGTDFTLTISRLEPEDFAVYYCQQFEFFGLGSELEVH | binds | – | –
VRC01 UCA (antibody, V domains shown, also called VRC01 lineage unmutated common ancestor; VRC01 UCA IgG) VH: not shown VL: EIVLTQSPGTLSLSPGERATLSCRASQSVSSSYLAWYQQKPGQAPRLLIYGASSRATGIPDRFSGSGSGTDFTLTISRLEPEDFAVYYCQQYEFFGQGTKLEIK | – | – | binding result [6]: binds; binding result [7]: binds; Kd [8]: < 0.1 nM and 0.25 nM; Kd [9]: 2400 nM and 2500 nM; koff [9]: 0.068 s⁻¹; kon [9]: 3000 M⁻¹ s⁻¹
VRC01 L34M (antibody, V domains shown) VH: QVQLVQSGGQMKKPGESMRISCRASGYEFIDCTMNWIRLAPGKRPEWMGWLKPRGGAVNYARPLQGRVTMTRDVYSDTAFLELRSLTVDDTAVYFCTRGKNCDYNWDFEHWGRGTPVIVSS VL: EIVLTQSPGTLSLSPGETAIISCRTSQYGSLAWYQQRPGQAPRLVIYSGSTRAAGIPDRFSGSRWGPDYNLTISNLESGDFGVYYCQQYEFFGQGTKVQVD | – | binds | –
VRC01 with 33TL34 reverted to the germline-encoded 33YM34 (antibody, V domains shown) VH: QVQLVQSGGQMKKPGESMRISCRASGYEFIDCYMNWIRLAPGKRPEWMGWLKPRGGAVNYARPLQGRVTMTRDVYSDTAFLELRSLTVDDTAVYFCTRGKNCDYNWDFEHWGRGTPVIVSS VL: EIVLTQSPGTLSLSPGETAIISCRTSQYGSLAWYQQRPGQAPRLVIYSGSTRAAGIPDRFSGSRWGPDYNLTISNLESGDFGVYYCQQYEFFGQGTKVQVD | – | no binding (tested: 100 μg/ml) | –
VRC02 with 33TL34 reverted to the germline-encoded 33YM34 (antibody, V domains shown) VH: QVQLVQSGGQMKKPGESMRISCQASGYEFIDCYMNWVRLAPGRRPEWMGWLKPRGGAVNYARPLQGRVTMTRDVYSDTAFLELRSLTADDTAVYYCTRGKNCDYNWDFEHWGRGTPVTVSS VL: EIVLTQSPGTLSLSPGETAIISCRTSQYGSLAWYQQRPGQAPRLVIYSGSTRAAGIPDRFSGSRWGPDYNLTIRNLESGDFGLYYCQQYEFFGQGTKVQVD | – | no binding (tested: 100 μg/ml) | –
VRC01 T33Y (antibody, V domains shown) VH: QVQLVQSGGQMKKPGESMRISCRASGYEFIDCYLNWIRLAPGKRPEWMGWLKPRGGAVNYARPLQGRVTMTRDVYSDTAFLELRSLTVDDTAVYFCTRGKNCDYNWDFEHWGRGTPVIVSS VL: EIVLTQSPGTLSLSPGETAIISCRTSQYGSLAWYQQRPGQAPRLVIYSGSTRAAGIPDRFSGSRWGPDYNLTISNLESGDFGVYYCQQYEFFGQGTKVQVD | – | no binding (tested: 100 μg/ml) | –
DH651.4 with 33TL34 reverted to the germline-encoded 33YM34 (antibody, V domains shown) VH: QVQLVQSGGQMKKPGESMRISCRASGYEFIDCYMNWIRLAPGRRPEWMGWLKPRGGAVSYARPLQGRVTMTRDVYSDTAFLELRSLTVDDTAVYFCTRGKTCDYNWDFAHWGQGTPVTVSS VL: EIVLTQSPGTLSLSPGETAIISCRTSQYGSLAWYQQRPGQAPRLVIYSGSTRAAGIPDRFSGSRWGPEYNLTISNLESGDFGVYYCQQYEFFGQGTKVQVD | – | no binding (tested: 100 μg/ml) | –
DH651.2 with 33TL34 reverted to the germline-encoded 33YM34 (antibody, V domains shown) VH: QVQLVQSGAQMKKPGESMRISCRASGYEFIDCYMNWIRLAPGRRPEWMGWLKPRGGAVNYARPLQGRVTMTRDVYSDTAFLELRSLTVDDTAVYFCTRGKTCDYNWDFAHWGQGTPVTVSS VL: EIVLTQSPGTLSLSPGETAIISCRTSQYGSLAWYQQRPGQAPRLVIYSGSTRAAGIPDRFSGSRWGPEYNLTISNLESGDFGVYYCQQYEFFGQGTKVQVD | – | no binding (tested: 100 μg/ml) | –
DH651.1 with 33TL34 reverted to the germline-encoded 33YM34 (antibody, V domains shown) VH: QVQLVQSGGQMKKPGESMRISCRTSGYEFIECYMNWIRLAPGRRPEWMGWLKPRGGAVNYARSFQGRVTMTRDVYSDTAFLELRSLTPDDTAVYFCTRGKDCNYNWDFEHWGRGTPVTVSS VL: EIVLTQSPHPALLSPGETAIISCRTSQYGSLAWYQQRPGQAPRLVIYSGSTRAAGIPDRFSGSRWGPDYNLTISNLESGDLGVYYCQQYEFFGQGTKVQVD | – | no binding (tested: 100 μg/ml) | –
12A12 V.Rev (antibody, V domains shown) VH: not shown VL: DIQMTQSPSSLSASVGDRVTITCQASQDISNYLNWYQQKPGKAPKLLIYDASNLETGVPSRFSGSGSGTDFTFTISSLQPEDIATYYCAVLEFFGPGTKVEIK | binds | – | –
VRC20 V.Rev (antibody, V domains shown) VH: not shown VL: QSALTQPASVSGSPGQSITISCTGTSSDVGGYNYVSWYQQHPGKAPKLMIYEVSNRPSGVSNRFSGSKSGNTASLTISGLQAEDEADYYCNAFEFFGGGTKLTVL | – | – | binding result [4]: binds
